# T1: Mouse FcRn (mouse, UniProt Q61559 22-297; P01887 21-119, limits assumed)
# T1 sequence (looked up) 1: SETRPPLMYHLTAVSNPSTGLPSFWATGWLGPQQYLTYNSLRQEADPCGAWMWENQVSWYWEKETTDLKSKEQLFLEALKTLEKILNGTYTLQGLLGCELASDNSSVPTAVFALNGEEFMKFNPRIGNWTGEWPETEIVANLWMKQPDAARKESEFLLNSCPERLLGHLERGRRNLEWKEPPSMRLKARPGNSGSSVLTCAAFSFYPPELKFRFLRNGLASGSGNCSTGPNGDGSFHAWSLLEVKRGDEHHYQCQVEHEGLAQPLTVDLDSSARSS
# T1 sequence (looked up) 2: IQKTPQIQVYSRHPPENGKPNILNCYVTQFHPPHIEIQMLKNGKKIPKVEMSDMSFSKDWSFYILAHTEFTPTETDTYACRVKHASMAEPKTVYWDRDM
# T2: rat FcRn (rat, UniProt P13599 23-298; P07151 21-119, limits assumed)
# T2 sequence (looked up) 1: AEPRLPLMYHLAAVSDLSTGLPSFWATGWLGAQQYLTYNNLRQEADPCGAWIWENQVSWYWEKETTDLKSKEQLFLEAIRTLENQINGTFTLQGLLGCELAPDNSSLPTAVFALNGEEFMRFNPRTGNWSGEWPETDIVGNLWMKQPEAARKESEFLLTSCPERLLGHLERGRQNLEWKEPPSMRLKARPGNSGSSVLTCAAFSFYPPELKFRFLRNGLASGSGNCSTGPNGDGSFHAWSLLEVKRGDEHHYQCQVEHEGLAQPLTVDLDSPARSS
# T2 sequence (looked up) 2: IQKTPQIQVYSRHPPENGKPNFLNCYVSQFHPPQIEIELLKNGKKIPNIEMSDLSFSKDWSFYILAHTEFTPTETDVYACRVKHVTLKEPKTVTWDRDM
# T3: Fcγ2a (His) (UniProt P12318 34-217)
# T3 construct: also called Fc Gamma IIa, His form
# T3 sequence (looked up): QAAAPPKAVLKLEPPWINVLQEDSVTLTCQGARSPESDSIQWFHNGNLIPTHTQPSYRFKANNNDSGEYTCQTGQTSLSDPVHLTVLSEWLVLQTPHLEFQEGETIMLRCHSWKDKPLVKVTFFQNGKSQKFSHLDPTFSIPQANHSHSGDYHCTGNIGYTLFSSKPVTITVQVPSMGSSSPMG
# T4: Fcγ2a (Arg) (UniProt P12318 34-217)
# T4 construct: also called Fc Gamma IIa, Arg form
# T4 sequence (looked up): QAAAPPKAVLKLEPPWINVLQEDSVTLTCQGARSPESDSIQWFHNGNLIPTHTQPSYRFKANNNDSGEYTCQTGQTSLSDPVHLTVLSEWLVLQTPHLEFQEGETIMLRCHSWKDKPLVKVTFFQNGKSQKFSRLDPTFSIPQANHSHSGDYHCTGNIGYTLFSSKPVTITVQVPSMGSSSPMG
# T5: human IL-7Rα (CD127) on cells (human, UniProt P16871 21-459)
# T5 chain: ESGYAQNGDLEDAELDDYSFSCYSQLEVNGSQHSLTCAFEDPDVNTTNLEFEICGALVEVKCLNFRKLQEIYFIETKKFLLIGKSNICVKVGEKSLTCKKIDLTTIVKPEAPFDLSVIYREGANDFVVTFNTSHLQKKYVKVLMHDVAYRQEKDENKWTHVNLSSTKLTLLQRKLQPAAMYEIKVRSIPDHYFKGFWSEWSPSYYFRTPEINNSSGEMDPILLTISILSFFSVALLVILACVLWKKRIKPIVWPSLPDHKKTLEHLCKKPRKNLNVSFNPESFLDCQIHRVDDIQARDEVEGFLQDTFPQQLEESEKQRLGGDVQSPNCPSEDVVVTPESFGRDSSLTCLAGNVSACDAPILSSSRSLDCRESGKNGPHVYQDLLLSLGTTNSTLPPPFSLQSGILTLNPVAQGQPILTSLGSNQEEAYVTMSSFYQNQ
# Experiments:
# Human FcRn = Human FcRn (human, UniProt P55899 24-297; P61769 21-119, limits assumed); assay: SPR, ProteOn XPR36; antibody amine-coupled to GLM chip, FcRn 8-2048 nM as analyte, equilibrium fit, pH 6.0
# Description: (§1) The work was carried out on the ProteOn XPR36 surface plasmon resonance machine (BioRad). The antibodies to be tested were coupled to a GLM biosensor chip by primary amine coupling. […] All binding sensograms were double referenced with a 0 nM injection (i.e. buffer alone). The data was fitted to the Equilibrium model inherent to the ProteOn analysis software.
# Mouse FcRn = target: T1, Mouse FcRn; assay: as above
# Description: as §1
# Cyno FcRn = Cyno FcRn (cyno, UniProt Q8SPV9 24-297; Q8SPW0 21-119, limits assumed); assay: as above
# Description: as §1
# rat FcRn = target: T2, rat FcRn; assay: as above
# Description: as §1
# Fcγ3a (Phe) [1] = target: T6, Fcγ3a (Phe) (UniProt P08637 17-208); assay: SPR, ProteOn XPR36; antibody amine-coupled to GLM chip, receptor 8-2048 nM as analyte, equilibrium fit, pH 7.4
# T6 construct: also called Fc Gamma IIIa, Phe form
# T6 sequence (P08637 17-208): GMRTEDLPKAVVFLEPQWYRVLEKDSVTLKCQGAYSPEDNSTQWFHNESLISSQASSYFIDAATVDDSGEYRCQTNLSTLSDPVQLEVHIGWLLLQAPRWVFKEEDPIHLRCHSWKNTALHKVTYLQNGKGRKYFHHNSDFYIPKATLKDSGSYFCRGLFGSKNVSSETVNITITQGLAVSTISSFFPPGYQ
# Description: as §1
# Fcγ2a (His) [2] = target: T3, Fcγ2a (His); assay: as above
# Description: as §1
# Fcγ2a (Arg) = target: T4, Fcγ2a (Arg); assay: as above
# Description: as §1
# Fcγ1 = target: T7, Fcγ1 (UniProt P12314 16-288); assay: as above
# T7 construct: also called Fc Gamma I
# T7 sequence (P12314 16-288): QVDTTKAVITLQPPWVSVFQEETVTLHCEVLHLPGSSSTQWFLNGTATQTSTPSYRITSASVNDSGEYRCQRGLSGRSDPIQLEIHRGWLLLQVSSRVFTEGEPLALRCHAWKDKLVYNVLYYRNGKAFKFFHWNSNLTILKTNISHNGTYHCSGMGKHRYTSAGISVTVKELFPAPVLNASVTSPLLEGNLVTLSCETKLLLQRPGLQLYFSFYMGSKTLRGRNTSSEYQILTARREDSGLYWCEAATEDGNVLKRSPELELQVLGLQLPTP
# Description: as §1
# Fcγ (Val) [3] = target: T8, Fcγ (Val) (UniProt P08637 17-208); assay: as above
# T8 sequence (P08637 17-208 F176V): as the sequence (P08637 17-208) above, with F160V counted along it
# Description: as §1
# Fcγ3a (Phe) [4] = target: T6, Fcγ3a (Phe); assay: SPR, ProteOn XPR36; antibody amine-coupled to GLM chip, receptor as analyte
# Description: as §1
# Fcγ2a (His) [5] = target: T3, Fcγ2a (His); assay: as above
# Description: as §1
# Fcγ (Val) [6] = target: T8, Fcγ (Val); assay: as above
# Description: as §1
# [7] = target: T5, human IL-7Rα (CD127) on cells; assay: cell-based or functional assay
Kd (Human FcRn),Kd (Mouse FcRn),Kd (Cyno FcRn),Kd (rat FcRn),Kd (Fcγ3a (Phe) [1]),Kd (Fcγ2a (His) [2]),Kd (Fcγ2a (Arg)),Kd (Fcγ1),Kd (Fcγ (Val) [3]),IC50 of inhibition of IL-7 induced STAT5 phosphorylation in human PBMC (flow cytometry) [7],Binder,binding result (Fcγ3a (Phe) [4]),binding result (Fcγ2a (His) [5]),binding result (Fcγ (Val) [6])
0.183 µM,0.192 µM,0.21 µM,0.145 µM,0.99 µM,1.04 µM,1.25 µM,0.0214 µM,0.319 µM,–,"1A11 H3L4 (antibody, IgG1, Humanised IgG1 kappa; also called BPC1142; anti-IL7R 1A11 H3L4; copies: 2 + 2) heavy: not shown light: EIVLTQSPATLSLSPGERATLSCSASSSVTYMHWYQQKPGQAPRPLIYEISKLASGIPARFSGSGSGTDFTLTISSLEPEDFAVYYCQEWNYPYTFGGGTKVEIKRTVAAPSVFIFPPSDEQLKSGTASVVCLLNNFYPREAKVQWKVDNALQSGNSQESVTEQDSKDSTYSLSSTLTLSKADYEKHKVYACEVTHQGLSSPVTKSFNRGEC",–,–,–
0.158 µM,0.207 µM,0.248 µM,0.163 µM,–,–,–,–,–,–,"1A11 H3L4Fc (antibody, also called Fc-disabled anti-IL7R mAb; Fc-disabled 1A11 H3L4; copies: 2 + 2) heavy: not shown light: EIVLTQSPATLSLSPGERATLSCSASSSVTYMHWYQQKPGQAPRPLIYEISKLASGIPARFSGSGSGTDFTLTISSLEPEDFAVYYCQEWNYPYTFGGGTKVEIKRTVAAPSVFIFPPSDEQLKSGTASVVCLLNNFYPREAKVQWKVDNALQSGNSQESVTEQDSKDSTYSLSSTLTLSKADYEKHKVYACEVTHQGLSSPVTKSFNRGEC",no binding (tested: up to 2048 nM receptor),no binding (tested: up to 2048 nM receptor),no binding (tested: up to 2048 nM receptor)
–,–,–,–,–,–,–,–,–,0.088 mg/L,"parental 1A11 monoclonal antibody (antibody, V domains shown) VH: EVQLQQSGPELLKPGASMKISCKASGYSFTGYTMNWVKQSHGKNLEWIGLINPYNGVTSYNQKFKGKATLTVAKSSSTAYMELLSLTSEDSAVYYCARGDGNYWYFDVWGAGTTVTVSS VL: EIVLTQSPAITAASLGQKVTITCSASSSVTYMHWYQQKSGTSPKPWIYEISKLASGVPVRFSGSGSGTSYSLTISSMEAEDAAIYYCQEWNYPYTFGGGTKLEIK",–,–,–
